Assay [1] addresses α6β1 integrin on human cells (human) (UniProt P23229). As to the kind of experiment: cell-based or functional assay.
Assay [2] concerns the target αVβ3 integrin on cells (human) (UniProt P06756). The assay can be described thus: cell-based or functional assay.

This note sets out measurements from patent publication US20040002124A1.

Sequence of α6β1 integrin on human cells (human) (P23229 24-1130, chain 1 of 2): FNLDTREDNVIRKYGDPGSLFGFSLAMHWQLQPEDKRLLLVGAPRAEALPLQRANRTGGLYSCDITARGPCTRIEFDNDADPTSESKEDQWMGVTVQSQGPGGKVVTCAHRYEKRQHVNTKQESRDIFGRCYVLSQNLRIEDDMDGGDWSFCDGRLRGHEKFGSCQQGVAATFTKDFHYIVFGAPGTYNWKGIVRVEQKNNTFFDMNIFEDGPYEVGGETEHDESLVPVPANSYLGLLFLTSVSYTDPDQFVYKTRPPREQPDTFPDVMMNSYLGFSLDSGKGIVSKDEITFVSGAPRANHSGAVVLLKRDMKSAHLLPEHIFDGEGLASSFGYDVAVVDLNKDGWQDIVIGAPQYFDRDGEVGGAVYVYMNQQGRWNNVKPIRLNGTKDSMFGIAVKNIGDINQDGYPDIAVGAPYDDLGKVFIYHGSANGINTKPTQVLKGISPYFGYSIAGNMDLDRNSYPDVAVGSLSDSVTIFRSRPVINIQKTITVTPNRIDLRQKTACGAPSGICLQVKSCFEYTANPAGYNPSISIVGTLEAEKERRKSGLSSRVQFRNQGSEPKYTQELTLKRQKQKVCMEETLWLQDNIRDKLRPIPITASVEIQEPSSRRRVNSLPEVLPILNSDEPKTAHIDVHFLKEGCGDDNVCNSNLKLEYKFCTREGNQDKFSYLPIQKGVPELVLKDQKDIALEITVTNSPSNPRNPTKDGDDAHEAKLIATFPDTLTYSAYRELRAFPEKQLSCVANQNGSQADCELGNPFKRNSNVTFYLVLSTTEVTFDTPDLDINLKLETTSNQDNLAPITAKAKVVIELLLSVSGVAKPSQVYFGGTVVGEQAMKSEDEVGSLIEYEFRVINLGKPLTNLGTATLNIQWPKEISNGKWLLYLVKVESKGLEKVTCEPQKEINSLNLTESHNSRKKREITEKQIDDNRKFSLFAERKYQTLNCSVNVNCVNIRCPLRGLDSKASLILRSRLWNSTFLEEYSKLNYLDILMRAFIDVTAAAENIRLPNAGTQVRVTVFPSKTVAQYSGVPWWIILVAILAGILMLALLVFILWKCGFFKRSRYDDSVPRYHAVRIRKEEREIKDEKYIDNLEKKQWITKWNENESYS
Sequence of α6β1 integrin on human cells (human) (P05556 21-798, chain 2 of 2, further chain): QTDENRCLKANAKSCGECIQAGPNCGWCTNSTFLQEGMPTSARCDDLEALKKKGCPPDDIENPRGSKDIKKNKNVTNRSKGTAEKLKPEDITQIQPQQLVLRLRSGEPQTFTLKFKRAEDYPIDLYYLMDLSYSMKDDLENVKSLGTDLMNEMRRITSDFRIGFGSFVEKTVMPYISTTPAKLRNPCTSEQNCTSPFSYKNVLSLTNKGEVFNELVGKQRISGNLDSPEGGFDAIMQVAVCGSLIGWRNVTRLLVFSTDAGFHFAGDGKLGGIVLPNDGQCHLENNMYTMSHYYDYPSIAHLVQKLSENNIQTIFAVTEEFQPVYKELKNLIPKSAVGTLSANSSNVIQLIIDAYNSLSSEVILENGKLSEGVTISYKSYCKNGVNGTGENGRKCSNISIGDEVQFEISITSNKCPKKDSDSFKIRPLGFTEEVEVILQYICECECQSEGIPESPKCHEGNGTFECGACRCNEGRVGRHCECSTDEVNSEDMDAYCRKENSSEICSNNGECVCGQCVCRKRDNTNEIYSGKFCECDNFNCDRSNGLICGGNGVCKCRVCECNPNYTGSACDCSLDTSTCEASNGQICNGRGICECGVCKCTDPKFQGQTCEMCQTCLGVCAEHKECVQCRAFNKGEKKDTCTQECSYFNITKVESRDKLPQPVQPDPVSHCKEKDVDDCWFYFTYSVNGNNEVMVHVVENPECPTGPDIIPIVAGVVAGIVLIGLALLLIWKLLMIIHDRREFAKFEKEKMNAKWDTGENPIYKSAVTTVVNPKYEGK
Sequence of αVβ3 integrin on cells (human) (P06756 31-1048, chain 1 of 2): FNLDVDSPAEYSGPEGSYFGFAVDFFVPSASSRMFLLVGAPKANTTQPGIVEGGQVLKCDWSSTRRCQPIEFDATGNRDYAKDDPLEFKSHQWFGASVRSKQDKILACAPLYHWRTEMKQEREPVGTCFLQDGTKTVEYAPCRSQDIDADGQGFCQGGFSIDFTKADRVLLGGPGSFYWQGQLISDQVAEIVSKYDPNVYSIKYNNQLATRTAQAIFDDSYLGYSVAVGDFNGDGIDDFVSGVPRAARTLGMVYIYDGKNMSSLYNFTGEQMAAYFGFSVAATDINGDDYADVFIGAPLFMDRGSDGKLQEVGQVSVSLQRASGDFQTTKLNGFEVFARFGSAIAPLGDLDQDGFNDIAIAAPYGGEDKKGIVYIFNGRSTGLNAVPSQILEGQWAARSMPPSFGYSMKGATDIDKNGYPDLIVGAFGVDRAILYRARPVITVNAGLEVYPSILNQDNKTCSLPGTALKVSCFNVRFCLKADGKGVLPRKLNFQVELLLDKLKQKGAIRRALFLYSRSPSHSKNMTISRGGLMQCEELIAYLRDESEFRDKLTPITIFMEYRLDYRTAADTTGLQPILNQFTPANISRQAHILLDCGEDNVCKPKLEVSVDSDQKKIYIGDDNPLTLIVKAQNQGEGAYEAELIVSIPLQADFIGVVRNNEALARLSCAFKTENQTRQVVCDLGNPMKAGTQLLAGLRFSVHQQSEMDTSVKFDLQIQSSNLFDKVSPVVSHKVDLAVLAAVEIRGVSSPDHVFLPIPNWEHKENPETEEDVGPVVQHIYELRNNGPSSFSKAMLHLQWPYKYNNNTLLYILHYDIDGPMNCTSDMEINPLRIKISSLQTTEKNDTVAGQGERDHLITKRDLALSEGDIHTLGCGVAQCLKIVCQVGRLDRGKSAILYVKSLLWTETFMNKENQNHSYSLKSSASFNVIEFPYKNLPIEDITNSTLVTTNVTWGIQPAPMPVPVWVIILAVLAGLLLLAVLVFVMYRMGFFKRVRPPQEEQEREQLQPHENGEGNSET
Sequence of αVβ3 integrin on cells (human) (P05106 27-788, chain 2 of 2, further chain): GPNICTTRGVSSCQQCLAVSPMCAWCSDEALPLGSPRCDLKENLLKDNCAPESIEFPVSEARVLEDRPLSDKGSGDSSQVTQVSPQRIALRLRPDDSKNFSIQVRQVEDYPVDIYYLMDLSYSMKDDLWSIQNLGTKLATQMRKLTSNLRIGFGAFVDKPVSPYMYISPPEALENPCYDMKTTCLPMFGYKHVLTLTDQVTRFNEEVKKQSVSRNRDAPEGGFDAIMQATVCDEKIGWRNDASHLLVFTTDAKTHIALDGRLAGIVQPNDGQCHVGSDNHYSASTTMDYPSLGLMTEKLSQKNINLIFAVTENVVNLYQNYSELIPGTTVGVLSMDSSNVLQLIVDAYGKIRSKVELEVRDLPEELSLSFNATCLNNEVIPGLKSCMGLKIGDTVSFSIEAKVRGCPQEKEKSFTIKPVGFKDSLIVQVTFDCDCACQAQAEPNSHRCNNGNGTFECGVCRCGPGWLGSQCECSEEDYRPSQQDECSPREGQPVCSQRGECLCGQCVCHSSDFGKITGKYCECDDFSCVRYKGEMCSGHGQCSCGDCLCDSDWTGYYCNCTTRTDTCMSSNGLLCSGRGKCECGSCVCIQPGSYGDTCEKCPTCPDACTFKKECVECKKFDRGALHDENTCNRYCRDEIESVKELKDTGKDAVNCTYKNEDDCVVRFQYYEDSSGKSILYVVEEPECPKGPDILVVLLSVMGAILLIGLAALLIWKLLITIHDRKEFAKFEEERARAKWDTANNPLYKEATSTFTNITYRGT

In assay [1], laminin (ligand) returned a 1064SK fibroblast adhesion to laminin (A620), with anti-α6 antibody (20 µg/ml) of 0.48 A620; a 1064SK fibroblast adhesion to laminin (A620), without anti-α6 antibody of 0.62 A620; an inhibition of 1064SK fibroblast adhesion to laminin by anti-α6 antibody of 22%.

“murine Cyr61 (from UniProt P18406 25-379) (ligand)” returned an inhibition of 1064SK fibroblast adhesion by anti-α6 antibody (20 µg/ml) in assay [1] of 78%. Besides, in assay [2], the relative binding capacity of HUVE cells on wild-type Cyr61 (5 µg/ml) after pre-incubation with 40 µg/ml anti-αvβ3 antibody (LM609); no pre-incubation = 100 is 42%, the relative binding capacity of HUVE cells on wild-type Cyr61 (5 µg/ml) after pre-incubation with 1 mM RGD peptide; no pre-incubation = 100 came out at 50% and the relative binding capacity of HUVE cells on wild-type Cyr61 (5 µg/ml) after pre-incubation with 2.5 mM EDTA; no pre-incubation = 100 was 22%.
